Laboratory results from patent publication US20040171158A1 (VECTORLOGICS, published 2004).

Assays:
[1] = biological target: T1, Ad5 fiber-zipper protein with zipper peptide RR12EE345L at the carboxy terminus of the fiber (Ad5 (adenovirus serotype 5), UniProt P11818 1-581); test: co-precipitation of cell lysate with 6His-tagged sCAR on Ni-NTA matrix, detection with anti-fiber antibody
T1 construct: Transiently expressed in 293 cells, tested as cell lysate; also called Carboxy terminus of the fiber RR12EE345L; pVS-LL-RN
T1 sequence: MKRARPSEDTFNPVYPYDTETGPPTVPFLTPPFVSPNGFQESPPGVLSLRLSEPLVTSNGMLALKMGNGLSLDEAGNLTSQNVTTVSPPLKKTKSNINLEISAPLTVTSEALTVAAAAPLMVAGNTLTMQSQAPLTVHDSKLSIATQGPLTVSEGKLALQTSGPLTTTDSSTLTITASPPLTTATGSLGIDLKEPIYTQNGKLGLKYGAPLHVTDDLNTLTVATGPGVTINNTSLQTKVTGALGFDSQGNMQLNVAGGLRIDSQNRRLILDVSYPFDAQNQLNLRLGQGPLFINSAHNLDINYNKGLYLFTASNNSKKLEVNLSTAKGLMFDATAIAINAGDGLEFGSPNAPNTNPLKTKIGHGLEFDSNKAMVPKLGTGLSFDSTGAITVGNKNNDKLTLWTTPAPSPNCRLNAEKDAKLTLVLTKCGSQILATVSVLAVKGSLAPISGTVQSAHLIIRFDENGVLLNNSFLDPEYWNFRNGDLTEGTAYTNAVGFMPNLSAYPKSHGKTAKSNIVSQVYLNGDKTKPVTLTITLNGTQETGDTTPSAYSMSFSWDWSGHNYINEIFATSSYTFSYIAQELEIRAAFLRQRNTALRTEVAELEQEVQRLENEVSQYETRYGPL

[2] = biological target: T2, Ad5 fiber-zipper protein with zipper peptide EE12RR345L at the carboxy terminus of the fiber (Ad5 (adenovirus serotype 5), UniProt P11818 1-581); test: as above
T2 construct: Transiently expressed in 293 cells, tested as cell lysate; also called Carboxy terminus of the fiber EE12RR345L; pVS-LL-EN

B1: soluble form of the coxsackie virus and adenovirus receptor (CAR) with a carboxy terminal 6His tag (receptor)
chain: LSITTPEEMIEKAKGETAYLPCKFTLSPEDQGPLDIEWLISPADNQKVDQVIILYSGDKIYDDYYPDLKGRVHFTSNDLKSGDASINVTNLQLSDIGTYQCKVKKAPGVANKKIHLVVLVKPSGARCYVDGSEEIGSDFKIKCEPKEGSLPLQYEWQKLSDSQKMPTSWLAEMTSSVISVKNASSEYSGTYSCTVRNRVGSDQCLLRLNVVPPSNKAHHHHHH
notes: also called sCAR; native adenoviral receptor
- binding result [1]: no binding
- binding result [2]: no binding
